From patent US20200157212A1 (Pfizer, published 2020)
Positions count from the first letter of the chain named.

Columns and labels:
[1] = biological target: T1, Terbium (Tb) labeled-SNAP tagged ROBO2 expressed on HEK293 cells (Homo sapiens (Human), UniProt Q9HCK4 22-1378, terbium label on the SNAP tag); experiment: HTRF competition, competitor d2-SLIT2-N, ROBO2 HEK293 cells
T1 construct: also called Tb-labeled ROBO2 cells; ROBO2 expressing cells; not shown: SNAP tag
T1 sequence: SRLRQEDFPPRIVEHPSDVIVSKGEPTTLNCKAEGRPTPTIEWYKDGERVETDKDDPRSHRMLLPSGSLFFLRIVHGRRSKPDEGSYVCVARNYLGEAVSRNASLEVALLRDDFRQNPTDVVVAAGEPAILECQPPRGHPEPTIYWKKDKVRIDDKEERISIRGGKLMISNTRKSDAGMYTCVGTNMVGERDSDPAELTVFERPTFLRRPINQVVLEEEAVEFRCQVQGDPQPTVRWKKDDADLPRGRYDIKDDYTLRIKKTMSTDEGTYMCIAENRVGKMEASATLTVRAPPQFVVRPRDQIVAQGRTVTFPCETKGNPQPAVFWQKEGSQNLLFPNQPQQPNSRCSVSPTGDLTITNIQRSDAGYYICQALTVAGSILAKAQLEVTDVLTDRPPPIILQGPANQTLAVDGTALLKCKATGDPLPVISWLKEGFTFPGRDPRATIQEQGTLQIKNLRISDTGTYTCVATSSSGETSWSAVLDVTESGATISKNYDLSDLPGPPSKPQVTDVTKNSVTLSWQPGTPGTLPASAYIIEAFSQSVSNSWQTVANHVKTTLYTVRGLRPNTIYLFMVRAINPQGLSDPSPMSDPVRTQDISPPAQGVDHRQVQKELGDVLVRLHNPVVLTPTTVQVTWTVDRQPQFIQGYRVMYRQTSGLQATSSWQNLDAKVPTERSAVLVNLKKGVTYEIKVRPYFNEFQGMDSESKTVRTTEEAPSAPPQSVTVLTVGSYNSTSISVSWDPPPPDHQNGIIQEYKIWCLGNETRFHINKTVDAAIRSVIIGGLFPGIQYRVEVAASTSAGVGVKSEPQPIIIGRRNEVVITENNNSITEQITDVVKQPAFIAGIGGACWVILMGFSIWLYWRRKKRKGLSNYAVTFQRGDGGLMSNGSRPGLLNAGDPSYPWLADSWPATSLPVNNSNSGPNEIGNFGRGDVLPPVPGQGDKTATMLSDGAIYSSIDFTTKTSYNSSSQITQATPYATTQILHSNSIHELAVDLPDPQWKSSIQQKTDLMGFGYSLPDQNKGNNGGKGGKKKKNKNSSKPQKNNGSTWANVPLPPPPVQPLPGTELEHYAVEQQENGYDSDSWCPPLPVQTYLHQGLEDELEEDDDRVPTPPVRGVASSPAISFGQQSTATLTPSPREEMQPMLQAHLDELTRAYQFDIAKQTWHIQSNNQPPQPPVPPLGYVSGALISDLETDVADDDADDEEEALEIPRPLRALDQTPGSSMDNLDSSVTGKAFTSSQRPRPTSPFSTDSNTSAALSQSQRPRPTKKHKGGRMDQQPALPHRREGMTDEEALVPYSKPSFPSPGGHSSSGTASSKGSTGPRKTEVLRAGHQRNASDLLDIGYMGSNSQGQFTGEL
Procedure: (§1) Antibodies generated as a result of the affinity maturation campaign were screened by numerous assays for neutralization of SLIT2-N binding, selective binding to ROBO2 over ROBO1, and inhibition of SLIT2-N functional activity (see Table 2). A ROBO2-SLIT2-N homogenous time resolved fluorescence (HTRF) assay was used to identify antibodies that were capable of blocking SLIT2-N binding to ROBO2. In this assay, terbium (Tb) labeled-SNAP tagged ROBO2 expressing HEK293 cells were incubated with 5 nM d2-labeled SLIT-2N in the presence of 1 nM anti-ROBO2 antibodies for 1 hour. After incubation, fluorescence at 665 nm and 620 nm was measured on an Envision multilabel plate reader. […] Maximal signal was defined as the HTRF ratio of Tb-labeled ROBO2 cells with d2-labeled SLIT2-N in the absence of antibody, the minimum signal was defined as the HTRF ratio of Tb-labeled ROBO2 expressing HEK293 cells only. One nanomolar (nM) parental antibody, 93H2, was unable to block the HTRF assay, therefore this concentration was selected to identify clones with a higher affinity than 93H2 (Table 2, HTRF Ratio column). […] Antibodies derived from chain (Abcs series) or CDR shuffling (CTIR-2 series) were evaluated in 11-point, 5-fold dilution series with a top concentration of 1500 nM (Table 2 HTRF IC₅₀).

[2] = biological target: T2, Human ROBO2 overexpressed on HEK293 cells (human, UniProt Q9HCK4 22-1378); experiment: flow cytometry, Geo MFI ROBO2/ROBO1 HEK293 cells, 0.1 µg/ml
T2 construct: also called ROBO2 cells; native ROBO2
T2 sequence: T1 sequence
Procedure: (§2) Binding of the antibodies was detected using a secondary fluorochrome conjugated anti-human IgG F(ab′)₂ antibody and samples were analyzed on a Fortessa cytometer (BD Biosciences). The fold ROBO2 selectivity was calculated as the geometric mean fluorescence intensity (Geo MFI) with ROBO2 cells/Geo MFI with ROBO1 cells. A fold change higher than 3 was considered to be ROBO2 specific (Table 2, Fold Selectivity). Some affinity matured clones had increased ROBO1 reactivity, for example Abcs 55, CTI-R2-10 and CTIR2-13.
(§3) HTRF assays were run with 5 nM d2-labeled SLIT2-N and antibodies were added at 1 nM. […] Antibodies derived from chain (Abcs series) or CDR shuffling (CTIR-2 series) were evaluated in 11-point, 5-fold dilution series with a top concentration of 1500 nM, N.T. = not tested; ^cFold selectivity was calculated as Geometric Mean Fluorescent Intensity (Geo MFI) of ROBO2/Geo MFI of ROBO1 binding. […] Outcomes: results are listed in order of assays listed in the table (left to right), I.A. = Improved Affinity

[3] = biological target: T1, Terbium (Tb) labeled-SNAP tagged ROBO2 …; experiment: HTRF, 5 nM d2-SLIT2-N on Tb-SNAP-ROBO2 HEK293 cells, 1 nM antibody
Procedure: as §1, with “In” for “Antibodies generated as a result of the affinity maturation campaign were screened by numerous assays for neutralization of SLIT2-N binding, selective binding to ROBO2 over ROBO1, and inhibition of SLIT2-N functional activity (see Table 2). A ROBO2-SLIT2-N homogenous time resolved fluorescence (HTRF) assay was used to identify antibodies that were capable of blocking SLIT2-N binding to ROBO2. In”
HTRF assays were run with 5 nM d2-labeled SLIT2-N and antibodies were added at 1 nM. […] Antibodies derived from chain (Abcs series) or CDR shuffling (CTIR-2 series) were evaluated in 11-point, 5-fold dilution series with a top concentration of 1500 nM, N.T. = not tested; ^cFold selectivity was calculated as Geometric Mean Fluorescent Intensity (Geo MFI) of ROBO2/Geo MFI of ROBO1 binding.

[4] = biological target: T2, Human ROBO2 overexpressed on HEK293 …; experiment: flow cytometry, Geo MFI ROBO2/ROBO1 HEK293 cells, 2.5 µg/ml
Procedure: as §2, §3

[5] = biological target: T3, Human ROBO1 RSK mutant overexpressed on HEK293 cells (human, UniProt Q9Y6N7 26-1651); experiment: flow cytometry, Geo MFI ROBO1-RSK/ROBO2-KSR HEK293 cells, 2.5 µg/ml
T3 construct: K137R and R139K already in the entry; also called ROBO1-RSK cells
T3 sequence (Q9Y6N7 other isoform, or with tags, fused parts or gaps mutant limits assumed): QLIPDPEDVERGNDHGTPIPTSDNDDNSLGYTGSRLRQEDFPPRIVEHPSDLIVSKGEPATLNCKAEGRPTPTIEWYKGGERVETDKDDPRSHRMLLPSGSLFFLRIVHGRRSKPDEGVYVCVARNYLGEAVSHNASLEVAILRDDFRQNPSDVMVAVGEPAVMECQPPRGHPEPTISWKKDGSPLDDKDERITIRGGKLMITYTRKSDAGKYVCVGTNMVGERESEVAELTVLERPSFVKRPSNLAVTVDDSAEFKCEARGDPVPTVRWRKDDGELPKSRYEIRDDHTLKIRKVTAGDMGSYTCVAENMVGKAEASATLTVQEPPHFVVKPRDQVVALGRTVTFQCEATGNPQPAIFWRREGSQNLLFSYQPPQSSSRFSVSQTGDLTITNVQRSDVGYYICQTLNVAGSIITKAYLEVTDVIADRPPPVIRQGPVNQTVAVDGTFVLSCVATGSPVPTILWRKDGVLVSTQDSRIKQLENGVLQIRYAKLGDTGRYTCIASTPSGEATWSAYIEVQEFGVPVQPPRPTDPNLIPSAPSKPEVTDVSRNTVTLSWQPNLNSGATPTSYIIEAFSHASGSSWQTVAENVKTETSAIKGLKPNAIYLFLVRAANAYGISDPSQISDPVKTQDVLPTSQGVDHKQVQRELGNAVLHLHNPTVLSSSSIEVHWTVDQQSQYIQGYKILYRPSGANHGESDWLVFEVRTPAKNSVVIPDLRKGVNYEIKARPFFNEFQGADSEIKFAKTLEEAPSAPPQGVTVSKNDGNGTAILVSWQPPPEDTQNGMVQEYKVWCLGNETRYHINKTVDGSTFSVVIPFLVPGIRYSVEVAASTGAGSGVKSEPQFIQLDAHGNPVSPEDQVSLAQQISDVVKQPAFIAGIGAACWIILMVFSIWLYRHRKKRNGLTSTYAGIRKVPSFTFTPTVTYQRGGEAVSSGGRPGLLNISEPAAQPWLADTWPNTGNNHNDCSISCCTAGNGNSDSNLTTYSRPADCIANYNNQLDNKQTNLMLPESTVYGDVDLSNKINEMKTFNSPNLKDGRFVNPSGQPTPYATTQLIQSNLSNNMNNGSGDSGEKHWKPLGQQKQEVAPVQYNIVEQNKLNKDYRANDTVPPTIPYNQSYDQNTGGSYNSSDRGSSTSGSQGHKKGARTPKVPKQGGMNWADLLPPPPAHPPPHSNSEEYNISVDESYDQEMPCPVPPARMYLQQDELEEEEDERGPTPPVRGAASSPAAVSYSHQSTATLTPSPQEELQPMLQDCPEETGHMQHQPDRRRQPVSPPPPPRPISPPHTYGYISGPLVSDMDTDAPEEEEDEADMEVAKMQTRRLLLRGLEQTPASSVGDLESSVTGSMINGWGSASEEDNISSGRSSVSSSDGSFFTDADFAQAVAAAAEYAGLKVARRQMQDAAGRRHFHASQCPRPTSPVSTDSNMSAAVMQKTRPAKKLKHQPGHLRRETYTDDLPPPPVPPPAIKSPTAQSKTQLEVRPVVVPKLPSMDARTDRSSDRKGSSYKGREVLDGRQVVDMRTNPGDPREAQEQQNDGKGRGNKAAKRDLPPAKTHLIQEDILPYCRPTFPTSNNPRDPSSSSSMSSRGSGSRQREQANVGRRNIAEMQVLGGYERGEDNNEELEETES

B1: Ab3 (antibody, human IgG1, kappa, V domains shown)
VH: EVQLVQSGAEVKKPGASVKVSCKASGYTFTGYYMHWVRQAPGQGLEWMGWINPKSGATNFPQKFQGRVTMTRDTSITTAYMDLSRLRSDDTAVYYCARESGDDAFDIWGQGTMVTVSS
VL: DIVMTQSPSSLSASVGDRVTITCRASQKISSYLNWYQQKPGKAPKLLIYAASSLQSGVPSRFSGSGSGTDFTLTISSLQPEDFATYYCQQSYSTSFGGGTKVEIKR
notes: full-length human IgG
Question: With B1 as the binder, how does the IC50 [1] read?
Answer: 0.133 nM

Question: And the “Fold Selectivity for ROBO2/ROBO1” value [2]?
Answer: 92 fold

Question: And the “HTRF Ratio” value [3]?
Answer: 6610

B2: Ab22 (antibody, human IgG1, kappa, V domains shown)
VH: B1 VH with K54R
VL: B1 VL with K28S, S56Y
notes: full-length human IgG
Question: How did the IC50 [1] turn out when B2 was run?
Answer: 0.229 nM

Question: What about the “Fold Selectivity for ROBO2/ROBO1” value [2] of the same binder?
Answer: 67.4 fold

Question: And the “HTRF Ratio” value [3]?
Answer: 5730

B3: Ab29 (antibody, human IgG1, kappa, V domains shown)
VH: B1 VH with W50A, N52D, A57T, N59M
VL: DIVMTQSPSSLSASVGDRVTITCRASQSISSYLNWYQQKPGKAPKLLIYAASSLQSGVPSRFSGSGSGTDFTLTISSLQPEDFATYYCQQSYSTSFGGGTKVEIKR
notes: full-length human IgG
Question: For B3, which IC50 [1] is on record?
Answer: 0.097 nM

Question: And the “Fold Selectivity for ROBO2/ROBO1” value [2]?
Answer: > 100 fold

Question: And the “HTRF Ratio” value [3]?
Answer: 7730

B4: Ab32 (antibody, human IgG1, kappa, V domains shown)
VH: B1 VH with W50A, N52D, S55L, A57I, N59I
VL: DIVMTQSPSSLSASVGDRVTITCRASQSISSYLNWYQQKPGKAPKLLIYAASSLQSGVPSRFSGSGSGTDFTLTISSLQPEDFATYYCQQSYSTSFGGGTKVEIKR
notes: full-length human IgG
Question: Which results are given for B4?
Answer: IC50 [1]: 0.234 nM; Fold Selectivity for ROBO2/ROBO1 [2]: 90.3 fold; HTRF Ratio [3]: 6000

B5: Ab40 (antibody, human IgG1, kappa, V domains shown)
VH: B1 VH with K54N
VL: B1 VL with K28S, Y92L, S93E, T94L, S95G
notes: full-length human IgG
Question: B5 was tested. Which IC50 [1] did it give?
Answer: 0.728 nM

Question: And the “Fold Selectivity for ROBO2/ROBO1” value [2]?
Answer: > 100 fold

Question: What about the “HTRF Ratio” value [3] of the same binder?
Answer: 7430

B6: Ab46 (antibody, human IgG1, kappa, V domains shown)
VH: B1 VH with W50A, N52D, S55H, A57F, N59I
VL: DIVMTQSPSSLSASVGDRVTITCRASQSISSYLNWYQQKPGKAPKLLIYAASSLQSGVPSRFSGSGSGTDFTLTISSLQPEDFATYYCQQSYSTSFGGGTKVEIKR
notes: full-length human IgG
Question: Which results are given for B6?
Answer: IC50 [1]: 0.109 nM; Fold Selectivity for ROBO2/ROBO1 [2]: > 100 fold; HTRF Ratio [3]: 5710

B7: Ab58 (antibody, human IgG1, kappa, V domains shown)
VH: B1 VH with S55D, A57D, N59E
VL: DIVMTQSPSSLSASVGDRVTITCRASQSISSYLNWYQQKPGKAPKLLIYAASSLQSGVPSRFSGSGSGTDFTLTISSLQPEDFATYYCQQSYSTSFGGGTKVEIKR
notes: full-length human IgG
Question: B7 was tested. Which IC50 [1] did it give?
Answer: 0.282 nM

Question: What about the “Fold Selectivity for ROBO2/ROBO1” value [2] of the same binder?
Answer: 21.8 fold

Question: What about the “HTRF Ratio” value [3] of the same binder?
Answer: 5570

B8: Ab83 (antibody, human IgG1, kappa, V domains shown)
VH: B1 VH with K54R, S55N, A57I, N59S
VL: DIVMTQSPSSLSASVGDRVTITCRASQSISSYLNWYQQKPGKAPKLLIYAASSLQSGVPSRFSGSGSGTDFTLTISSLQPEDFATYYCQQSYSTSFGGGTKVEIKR
notes: full-length human IgG
Question: How did the IC50 [1] turn out when B8 was run?
Answer: 0.437 nM

Question: And the “Fold Selectivity for ROBO2/ROBO1” value [2]?
Answer: 40.6 fold

Question: And the “HTRF Ratio” value [3]?
Answer: 4770

B9: Abcs5 (antibody, human IgG1, kappa, V domains shown)
VH: B1 VH with S55N, A57D, N59E
VL: B1 VL with K28S, Y92L, S93E, T94L, S95G
notes: chain-shuffled IgG
Question: B9 was tested. Which IC50 [1] did it give?
Answer: 0.036 nM

Question: And the “Fold Selectivity for ROBO2/ROBO1” value [4]?
Answer: 5.1 fold

Question: What about the “HTRF Ratio” value [3] of the same binder?
Answer: 3540

Question: What about the “Fold Selectivity for RSK/KSR” value [5] of the same binder?
Answer: 6.7 fold

B10: Abcs12 (antibody, human IgG1, kappa, V domains shown)
VH: B1 VH with K54R, S55N, A57I, N59S
VL: B1 VL with K28S, Y92L, S93E, T94L, S95G
notes: chain-shuffled IgG; also called Abes12
Question: How did the IC50 [1] turn out when B10 was run?
Answer: 0.032 nM

Question: And the “Fold Selectivity for ROBO2/ROBO1” value [4]?
Answer: 15.7 fold

Question: And the “HTRF Ratio” value [3]?
Answer: 2910

Question: And the “Fold Selectivity for RSK/KSR” value [5]?
Answer: > 100 fold

B11: Abcs50 (antibody, human IgG1, kappa, V domains shown)
VH: B1 VH with S55N, A57D, N59E
VL: B1 VL with K28S, S56Y
notes: chain-shuffled IgG
Question: Which IC50 [1] does the source give for B11 here?
Answer: 0.051 nM

Question: What about the “Fold Selectivity for ROBO2/ROBO1” value [4] of the same binder?
Answer: 3.9 fold

Question: And the “HTRF Ratio” value [3]?
Answer: 2710

Question: And the “Fold Selectivity for RSK/KSR” value [5]?
Answer: 1.3 fold

B12: CTIR2-6 (antibody, human IgG1, kappa, V domains shown)
VH: B1 VH
VL: B1 VL with Y92V, S93G, T94L, S95F
notes: CDR-shuffled IgG
Question: For B12, which IC50 [1] is on record?
Answer: 0.067 nM

Question: What about the “Fold Selectivity for ROBO2/ROBO1” value [4] of the same binder?
Answer: 35 fold

Question: And the “HTRF Ratio” value [3]?
Answer: 4160

Question: What about the “Fold Selectivity for RSK/KSR” value [5] of the same binder?
Answer: > 100 fold

B13: CTIR2-9 (antibody, human IgG1, kappa, V domains shown)
VH: B1 VH
VL: B1 VL with S56Y, Y92V, S93G, T94L, S95F
notes: CDR-shuffled IgG
Question: Which IC50 [1] does the source give for B13 here?
Answer: 0.064 nM

Question: And the “Fold Selectivity for ROBO2/ROBO1” value [4]?
Answer: 14.8 fold

Question: What about the “HTRF Ratio” value [3] of the same binder?
Answer: 3540

Question: What about the “Fold Selectivity for RSK/KSR” value [5] of the same binder?
Answer: > 100 fold

B14: CTIR2-10 (antibody, human IgG1, kappa, V domains shown)
VH: B1 VH with T30R, Y33A, K54R, A57V, N59E
VL: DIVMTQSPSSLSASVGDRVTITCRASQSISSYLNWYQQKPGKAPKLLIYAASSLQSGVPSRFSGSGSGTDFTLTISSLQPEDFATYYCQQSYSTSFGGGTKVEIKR
notes: CDR-shuffled IgG
Question: B14 was tested. Which IC50 [1] did it give?
Answer: 0.04 nM

Question: What about the “Fold Selectivity for ROBO2/ROBO1” value [4] of the same binder?
Answer: 2.3 fold

Question: What about the “HTRF Ratio” value [3] of the same binder?
Answer: 3920

Question: What about the “Fold Selectivity for RSK/KSR” value [5] of the same binder?
Answer: 1.4 fold

B15: CTIR2-13 (antibody, human IgG1, kappa, V domains shown)
VH: B1 VH with T30R, Y33A, N52D, K54R, S55T, A57L, N59K
VL: B1 VL with S56Y
notes: CDR-shuffled IgG
Question: What does the source list for B15?
Answer: IC50 [1]: 0.055 nM; Fold Selectivity for ROBO2/ROBO1 [4]: 2.3 fold; HTRF Ratio [3]: 3530; Fold Selectivity for RSK/KSR [5]: 2.5 fold
